Changes are numbered by the printed parent chain.
Legend:
HLA-DR1 (DRB1*0101) = HLA-DR1 (DRB1*0101) (Homo sapiens, UniProt P01903+P01911, A100R/D57E/F55L/F60I/F76Y/I96L/L162R/M171V/P40L/Q125E/R42F/V115G/Y59C); assay type: binding; settings: ratio of IC50 of competitor peptide to IC50 of reference peptide; mean of at least two independent experiments; less than 100 = active
HLA-DR3 (DRB1*0301) = HLA-DR3 (DRB1*0301) (Homo sapiens, UniProt P01903+P01911, A100K/A102G/A103R/A169T/F55Y/I96L/K41T/L162R/M171V/P40S/Q125H/Q178H/Q39Y/R42S/S66N/T106N/T262R/W38E/Y61H); experiment: HLA II/peptide competition binding assay, DR3; settings: ratio of IC50 of competitor peptide to IC50 of reference peptide; mean of at least two independent experiments; less than 100 = active
HLA-DR4 (DRB1*0401) = HLA-DR4 (DRB1*0401) (Homo sapiens, UniProt P01903+P01911, A100K/A169T/F76Y/I96L/K127E/L162R/M171V/N62H/P40V/Q125Y/R42H/S133A/S149N/S66Y/V115G/V209L/W38E); experiment: HLA II/peptide competition binding assay, DR4; settings: ratio of IC50 of competitor peptide to IC50 of reference peptide; mean of at least two independent experiments; less than 100 = active
HLA-DR7 (DRB1*0701) = HLA-DR7 (DRB1*0701) (Homo sapiens, UniProt P01903+P01911, A100R/A102G/A103Q/D57E/D86V/E43K/F76Y/K127E/L162R/M171V/P40G/Q125H/Q99D/R33Q/R42Y/R54Q/S133A/S66F/T210M/V115G/Y107V/Y59L/Y89S); experiment: HLA II/peptide competition binding assay, DR7; settings: ratio of IC50 of competitor peptide to IC50 of reference peptide; mean of at least two independent experiments; less than 100 = active
HLA-DR11 (DRB1*1101) = HLA-DR11 (DRB1*1101) (Homo sapiens, UniProt P01903+P01911, A100R/A169T/A87E/I96F/K41T/L162R/M171V/P40S/Q125H/Q178H/Q39Y/Q99D/R42S/S66Y/T262R/V115G/W38E); assay type: binding; settings: ratio of IC50 of competitor peptide to IC50 of reference peptide; mean of at least two independent experiments; less than 100 = active
HLA-DR13 (DRB1*1301) = HLA-DR13 (DRB1*1301) (Homo sapiens, UniProt P01903+P01911, A100E/A169T/K41T/L162R/M171V/P40S/Q125H/Q178H/Q39Y/Q99D/R42S/S66N/T262R/W38E/Y61H); experiment: HLA II/peptide competition binding assay, DR13; settings: ratio of IC50 of competitor peptide to IC50 of reference peptide; mean of at least two independent experiments; less than 100 = active
HLA-DR15 (DRB1*1501) = HLA-DR15 (DRB1*1501) (Homo sapiens, UniProt P01903+P01911); experiment: HLA II/peptide competition binding assay, DR15; settings: ratio of IC50 of competitor peptide to IC50 of reference peptide; mean of at least two independent experiments; less than 100 = active
HLA-DRB3 (DRB3*0101) = HLA-DRB3 (DRB3*0101) (Homo sapiens, UniProt P01903+P79483); experiment: HLA II/peptide competition binding assay, DRB3; settings: ratio of IC50 of competitor peptide to IC50 of reference peptide; mean of at least two independent experiments; less than 100 = active
HLA-DRB4 (DRB4*0101) = HLA-DRB4 (DRB4*0101) (Homo sapiens, UniProt P01903+P13762, G164S); experiment: HLA II/peptide competition binding assay, DRB4; settings: ratio of IC50 of competitor peptide to IC50 of reference peptide; mean of at least two independent experiments; less than 100 = active
HLA-DRB5 (DRB5*0101) = HLA-DRB5 (DRB5*0101) (Homo sapiens, UniProt P01903+Q30154); experiment: HLA II/peptide competition binding assay, DRB5; settings: ratio of IC50 of competitor peptide to IC50 of reference peptide; mean of at least two independent experiments; less than 100 = active
HLA-DP401 (DPB1*0401) = molecular target: T1, HLA-DP401 (DPB1*0401) (Homo sapiens, UniProt P04440+P20036); assay type: binding; settings: ratio of IC50 of competitor peptide to IC50 of reference peptide; mean of at least two independent experiments; less than 100 = active
T1 sequence (P04440 30-258): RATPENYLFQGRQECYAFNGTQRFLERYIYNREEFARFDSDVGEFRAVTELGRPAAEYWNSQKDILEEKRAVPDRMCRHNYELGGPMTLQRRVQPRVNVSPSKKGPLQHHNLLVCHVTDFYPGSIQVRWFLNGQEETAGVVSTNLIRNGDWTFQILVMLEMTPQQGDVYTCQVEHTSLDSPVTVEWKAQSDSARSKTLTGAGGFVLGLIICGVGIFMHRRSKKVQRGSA
T1 sequence (P20036 29-260): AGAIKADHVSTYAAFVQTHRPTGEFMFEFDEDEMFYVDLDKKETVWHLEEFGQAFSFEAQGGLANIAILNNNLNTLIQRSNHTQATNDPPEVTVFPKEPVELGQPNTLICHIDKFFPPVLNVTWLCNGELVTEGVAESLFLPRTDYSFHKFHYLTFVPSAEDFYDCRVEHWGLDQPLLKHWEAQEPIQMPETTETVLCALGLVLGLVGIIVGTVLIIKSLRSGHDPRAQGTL

HLA-DP402 (DPB1*0402) = molecular target: T2, HLA-DP402 (DPB1*0402) (Homo sapiens, UniProt P04440+P20036, A65V/A84D/A85E/L207M); assay type: binding; settings: ratio of IC50 of competitor peptide to IC50 of reference peptide; mean of at least two independent experiments; less than 100 = active
T2 sequence (P04440 30-258 A65V/A84D/A85E): T1 sequence (P04440 30-258) with A36V, A55D, A56E
T2 sequence (P20036 29-260): T1 sequence (P20036 29-260)

[1] = system: 12 predominant HLA II molecules; experiment: HLA II/peptide binding assays, count over the panel; design: species or system human; settings: relative activity of less than 100 characterizes the active peptides
Excerpt: The assays for binding to HLA II molecules are competition binding assays with immunoenzymatic visualization, as described in U.S. Pat. No. 6,649,166 and PCT international application WO 03/040299, respectively, for the HLA-DR and HLA-DP4 molecules. The implementation of these assays for measuring the binding activity of peptides derived from various antigens is illustrated in U.S. Pat. No. 6,649,166 and PCT international applications WO 02/090382, WO 03/040299 and WO 2004/014936.
The sensitivity of each test is reflected by the IC50 values observed with the nonbiotinylated peptides which correspond to the tracers. […] The results are expressed in the form of relative activity (ratio of the IC50 of the competitor peptide to that of the reference peptide (nonbiotinylated peptide which corresponds to the tracer)). A relative activity of less than 100 characterizes the active peptides.

Substance	Relative binding activity, DR1 (HLA-DR1 (DRB1*0101))	Relative binding activity, DR3 (HLA-DR3 (DRB1*0301))	Relative binding activity, DR4 (HLA-DR4 (DRB1*0401))	Relative binding activity, DR7 (HLA-DR7 (DRB1*0701))	Relative binding activity, DR11 (HLA-DR11 (DRB1*1101))	Relative binding activity, DR13 (HLA-DR13 (DRB1*1301))	Relative binding activity, DR15 (HLA-DR15 (DRB1*1501))	Relative binding activity, DRB3 (HLA-DRB3 (DRB3*0101))	Relative binding activity, DRB4 (HLA-DRB4 (DRB4*0101))	Relative binding activity, DRB5 (HLA-DRB5 (DRB5*0101))	Relative binding activity, DP401 (HLA-DP401 (DPB1*0401))	Relative binding activity, DP402 (HLA-DP402 (DPB1*0402))	Total (number of the 12 predominant HLA II molecules bound) [1]
K D K V K K G G P G S E C A E (KDKVKKGGPGSECAE) [MDK 25-39]	1 251	>419	>1 812	>2 479	>1 086	>2 537	>529	>485	>28 868	>2 100	>879	>976	0
E N W G A C D G G T G T K V R (ENWGACDGGTGTKVR) [MDK 89-103]	1 460	>419	>1 812	>2 479	>1 086	>2 537	>529	2 333	>28 868	>2 100	>879	>976	0
T S A V A K K K D K V K K G G (TSAVAKKKDKVKKGG) [MDK 18-32]	>5 291	>419	>1 812	>2 479	>1 086	132	>529	>485	>28 868	>2 100	>879	>976	0
C R V P C N W K K E F G A D C (CRVPCNWKKEFGADC) [MDK 70-84]	–	>419	1 562	>2 479	>1 086	>2 537	>529	–	>28 868	>2 100	–	>976	2

From patent publication US20110159022A1, “Immunogenic Peptides Derived from the Midkine Protein, as an Anticancer Vaccine” (priority 2008, published 2011)
